Measured values reported in patent publication US20110269676A1.

Target: recombinant gp120 (HIV (strain not stated))
Assay: SPR (BIAcore3000), gp120 immobilised on CM5

How did the Ka turn out when “2D (D1D2 domain of soluble CD4) (from UniProt P01730 26-210) (receptor)” was run?
The Ka was 4.8e+07 M⁻¹.

What about the Kd of the same substance?
Its Kd is 21 nM.

And the koff?
Its koff is 0.00047 s⁻¹.

What about the kon of the same substance?
The kon was 22000 M⁻¹ s⁻¹.
